In US7118902:

B1: ADAMTS4(p53), auto-digested isoform of human ADAMTS4 (protein)
chain: FASLSRFVETLVVADDKMAAFHGAGLKRYLLTVMAAAAKAFKHPSIRNPVSLVVTRLVILGSGEEGPQVGPSAAQTLRSFCAWQRGLNTPEDSDPDHFDTAILFTRQDLCGVSTCDTLGMADVGTVCDPARSCAIVEDDGLQSAFTAAHELGHVFNMLHDNSKPCISLNGPLSTSRHVMAPVMAHVDPEEPWSPCSARFITDFLDNGYGHCLLDKPEAPLHLPVTFPGKDYDADRQCQLTFGPDSRHCPQLPPPCAALWCSGHLNGHAMCQTKHSPWADGTPCGPAQACMGGRCLHMDQLQDFNIPQAGGWGPWGPWGDCSRTCGGGVQFSSRDCTRPVPRNGGKYCEGRRTRFRSCNTEDCPTGSALTFREEQCAAYNHRTDLFKSFPGPMDWVPRYTGVAPQDQCKLTCQARALGYYYVLEPRVVDGTPCSPDSSSVCVQGRCIHAGCDRIIGSKKKFDKCMVCGGDGSGCSKQSGSFRK
B2: ADAMTS4(p40), auto-digested isoform of human ADAMTS4 (protein)
chain: FASLSRFVETLVVADDKMAAFHGAGLKRYLLTVMAAAAKAFKHPSIRNPVSLVVTRLVILGSGEEGPQVGPSAAQTLRSFCAWQRGLNTPEDSDPDHFDTAILFTRQDLCGVSTCDTLGMADVGTVCDPARSCAIVEDDGLQSAFTAAHELGHVFNMLHDNSKPCISLNGPLSTSRHVMAPVMAHVDPEEPWSPCSARFITDFLDNGYGHCLLDKPEAPLHLPVTFPGKDYDADRQCQLTFGPDSRHCPQLPPPCAALWCSGHLNGHAMCQTKHSPWADGTPCGPAQACMGGRCLHMDQLQDFNIPQAGGWGPWGPWGDCSRTCGGGVQFSSRDCTRPVPRNGGKYCEGRRTRFRSCNTEDCPTGSALT
B3: furin-processed protein of construct B (truncated ADAMTS4, catalytic domain with His tag) (protein)
chain: FASLSRFVETLVVADDKMAAFHGAGLKRYLLTVMAAAAKAFKHPSIRNPVSLVVTRLVILGSGEEGPQVGPSAAQTLRSFCAWQRGLNTPEDSDPDHFDTAILFTRQDLCGVSTCDTLGMADVGTVCDPARSCAIVEDDGLQSAFTAAHELGHVFNMLHDNSKPCISLNGPLSTSRHVMAPVMAHVDPEEPWSPCSARFITDFLDNGYGHCLLDKPEHHHHHH
B4: furin-processed mature protein of construct C (protein)
chain: FASLSRFVETLVVADDKMAAFHGAGLKRYLLTVMAAAAKAFKHPSIRNPVSLVVTRLVILGSGEEGPQVGPSAAQTLRSFCAWQRGLNTPEDSDPDHFDTAILFTRQDLCGVSTCDTLGMADVGTVCDPARSCAIVEDDGLQSAFTAAHELGHVFNMLHDNSKPCISLNGPLSTSRHVMAPVMAHVDPEEPWSPCSARFITDFLDNGYGHCLLDKPEAPLHLPVTFPGKDYDADRQCQLTFGPDSRHCPQLPPPCAALWCSGHLNGHAMCQTKHSPWADGTPCGPAQACMGGRCLHMDQLQDFNIPQAGGWGPWGPWGDCSRTCGGGVQFSSRDCTRPVPRNGGKYCEGRRTRFRSCNTEDCPTGSALTFREEQCAAYNHRTDLFKSFPGPMDWVPRYTGVAPQDQCKLTCQARALGYYYVLEPRVVDGTPCSPDSSSVCVQGRCIHAGCDRIIGSKKKFDKCMVCGGDGSGCSGSAWSHPQFEK
B5: furin-processed mature protein of construct D (protein)
chain: FASLSRFVETLVVADDKMAAFHGAGLKRYLLTVMAAAAKAFKHPSIRNPVSLVVTRLVILGSGEEGPQVGPSAAQTLRSFCAWQRGLNTPEDSDPDHFDTAILFTRQDLCGVSTCDTLGMADVGTVCDPARSCAIVEDDGLQSAFTAAHELGHVFNMLHDNSKPCISLNGPLSTSRHVMAPVMAHVDPEEPWSPCSARFITDFLDNGYGHCLLDKPEAPLHLPVTFPGKDYDADRQCQLTFGPDSRHCPQLPPPCAALWCSGHLNGHAMCQTKHSPWADGTPCGPAQACMGGRCLHMDQLQDFNIPQAGGWGPWGPWGDCSRTCGGGVQFSSRDCTRPVPRNGGKYCEGRRTRFRSCNTEDCPTGSALTFREEQCAAYNHRTDLFKSFPGPMDWVPRYTGVAPQDQCKLTCQARALGYYYVLEPRVVDGTPCSPDSSSVCVQGRCIHAGCDRIIGSKKKFDKCMVCGGDGSGCS
B6: mature protein of construct G (full-length ADAMTS4 active-site mutant E362Q with FLAG tag) (protein)
chain: FASLSRFVETLVVADDKMAAFHGAGLKRYLLTVMAAAAKAFKHPSIRNPVSLVVTRLVILGSGEEGPQVGPSAAQTLRSFCAWQRGLNTPEDSDPDHFDTAILFTRQDLCGVSTCDTLGMADVGTVCDPARSCAIVEDDGLQSAFTAAHQLGHVFNMLHDNSKPCISLNGPLSTSRHVMAPVMAHVDPEEPWSPCSARFITDFLDNGYGHCLLDKPEAPLHLPVTFPGKDYDADRQCQLTFGPDSRHCPQLPPPCAALWCSGHLNGHAMCQTKHSPWADGTPCGPAQACMGGRCLHMDQLQDFNIPQAGGWGPWGPWGDCSRTCGGGVQFSSRDCTRPVPRNGGKYCEGRRTRFRSCNTEDCPTGSALTFREEQCAAYNHRTDLFKSFPGPMDWVPRYTGVAPQDQCKLTCQARALGYYYVLEPRVVDGTPCSPDSSSVCVQGRCIHAGCDRIIGSKKKFDKCMVCGGDGSGCSKQSGSFRKFRYGYNNVVTIPAGATHILVRQQGNPGHRSIYLALKLPDGSYALNGEYTLMPSPTDVVLPGAVSLRYSGATAASETLSGHGPLAQPLTLQVLVAGNPQDTRLRYSFFVPRPTPSTPRPTPQDWLHRRAQILEILRRRPWAGRKVDYKDDDDK
B7: furin-processed construct H (truncated ADAMTS4 active-site mutant without the spacer domain, C-terminal FLAG tag) (protein)
chain: FASLSRFVETLVVADDKMAAFHGAGLKRYLLTVMAAAAKAFKHPSIRNPVSLVVTRLVILGSGEEGPQVGPSAAQTLRSFCAWQRGLNTPEDSDPDHFDTAILFTRQDLCGVSTCDTLGMADVGTVCDPARSCAIVEDDGLQSAFTAAHQLGHVFNMLHDNSKPCISLNGPLSTSRHVMAPVMAHVDPEEPWSPCSARFITDFLDNGYGHCLLDKPEAPLHLPVTFPGKDYDADRQCQLTFGPDSRHCPQLPPPCAALWCSGHLNGHAMCQTKHSPWADGTPCGPAQACMGGRCLHMDQLQDFNIPQAGGWGPWGPWGDCSRTCGGGVQFSSRDCTRPVPRNGGKYCEGRRTRFRSCNTEDCPVDYKDDDDK
B8: furin-processed construct I (truncated ADAMTS4 active-site mutant without the spacer and the TSP-1 domain, C-terminal FLAG tag) (protein)
chain: FASLSRFVETLVVADDKMAAFHGAGLKRYLLTVMAAAAKAFKHPSIRNPVSLVVTRLVILGSGEEGPQVGPSAAQTLRSFCAWQRGLNTPEDSDPDHFDTAILFTRQDLCGVSTCDTLGMADVGTVCDPARSCAIVEDDGLQSAFTAAHQLGHVFNMLHDNSKPCISLNGPLSTSRHVMAPVMAHVDPEEPWSPCSARFITDFLDNGYGHCLLDKPEAPLHLPVTFPGKDYDADRQCQLTFGPDSRHCPQLPPPCAALWCSGHLNGHAMCQTKHSPWADGTPCGPAQACMGGRCLHMDQLQDFNIPQAVDYKDDDDK

Target: bovine articular cartilage aggrecan, P13608
Sequence (P13608 17-2364): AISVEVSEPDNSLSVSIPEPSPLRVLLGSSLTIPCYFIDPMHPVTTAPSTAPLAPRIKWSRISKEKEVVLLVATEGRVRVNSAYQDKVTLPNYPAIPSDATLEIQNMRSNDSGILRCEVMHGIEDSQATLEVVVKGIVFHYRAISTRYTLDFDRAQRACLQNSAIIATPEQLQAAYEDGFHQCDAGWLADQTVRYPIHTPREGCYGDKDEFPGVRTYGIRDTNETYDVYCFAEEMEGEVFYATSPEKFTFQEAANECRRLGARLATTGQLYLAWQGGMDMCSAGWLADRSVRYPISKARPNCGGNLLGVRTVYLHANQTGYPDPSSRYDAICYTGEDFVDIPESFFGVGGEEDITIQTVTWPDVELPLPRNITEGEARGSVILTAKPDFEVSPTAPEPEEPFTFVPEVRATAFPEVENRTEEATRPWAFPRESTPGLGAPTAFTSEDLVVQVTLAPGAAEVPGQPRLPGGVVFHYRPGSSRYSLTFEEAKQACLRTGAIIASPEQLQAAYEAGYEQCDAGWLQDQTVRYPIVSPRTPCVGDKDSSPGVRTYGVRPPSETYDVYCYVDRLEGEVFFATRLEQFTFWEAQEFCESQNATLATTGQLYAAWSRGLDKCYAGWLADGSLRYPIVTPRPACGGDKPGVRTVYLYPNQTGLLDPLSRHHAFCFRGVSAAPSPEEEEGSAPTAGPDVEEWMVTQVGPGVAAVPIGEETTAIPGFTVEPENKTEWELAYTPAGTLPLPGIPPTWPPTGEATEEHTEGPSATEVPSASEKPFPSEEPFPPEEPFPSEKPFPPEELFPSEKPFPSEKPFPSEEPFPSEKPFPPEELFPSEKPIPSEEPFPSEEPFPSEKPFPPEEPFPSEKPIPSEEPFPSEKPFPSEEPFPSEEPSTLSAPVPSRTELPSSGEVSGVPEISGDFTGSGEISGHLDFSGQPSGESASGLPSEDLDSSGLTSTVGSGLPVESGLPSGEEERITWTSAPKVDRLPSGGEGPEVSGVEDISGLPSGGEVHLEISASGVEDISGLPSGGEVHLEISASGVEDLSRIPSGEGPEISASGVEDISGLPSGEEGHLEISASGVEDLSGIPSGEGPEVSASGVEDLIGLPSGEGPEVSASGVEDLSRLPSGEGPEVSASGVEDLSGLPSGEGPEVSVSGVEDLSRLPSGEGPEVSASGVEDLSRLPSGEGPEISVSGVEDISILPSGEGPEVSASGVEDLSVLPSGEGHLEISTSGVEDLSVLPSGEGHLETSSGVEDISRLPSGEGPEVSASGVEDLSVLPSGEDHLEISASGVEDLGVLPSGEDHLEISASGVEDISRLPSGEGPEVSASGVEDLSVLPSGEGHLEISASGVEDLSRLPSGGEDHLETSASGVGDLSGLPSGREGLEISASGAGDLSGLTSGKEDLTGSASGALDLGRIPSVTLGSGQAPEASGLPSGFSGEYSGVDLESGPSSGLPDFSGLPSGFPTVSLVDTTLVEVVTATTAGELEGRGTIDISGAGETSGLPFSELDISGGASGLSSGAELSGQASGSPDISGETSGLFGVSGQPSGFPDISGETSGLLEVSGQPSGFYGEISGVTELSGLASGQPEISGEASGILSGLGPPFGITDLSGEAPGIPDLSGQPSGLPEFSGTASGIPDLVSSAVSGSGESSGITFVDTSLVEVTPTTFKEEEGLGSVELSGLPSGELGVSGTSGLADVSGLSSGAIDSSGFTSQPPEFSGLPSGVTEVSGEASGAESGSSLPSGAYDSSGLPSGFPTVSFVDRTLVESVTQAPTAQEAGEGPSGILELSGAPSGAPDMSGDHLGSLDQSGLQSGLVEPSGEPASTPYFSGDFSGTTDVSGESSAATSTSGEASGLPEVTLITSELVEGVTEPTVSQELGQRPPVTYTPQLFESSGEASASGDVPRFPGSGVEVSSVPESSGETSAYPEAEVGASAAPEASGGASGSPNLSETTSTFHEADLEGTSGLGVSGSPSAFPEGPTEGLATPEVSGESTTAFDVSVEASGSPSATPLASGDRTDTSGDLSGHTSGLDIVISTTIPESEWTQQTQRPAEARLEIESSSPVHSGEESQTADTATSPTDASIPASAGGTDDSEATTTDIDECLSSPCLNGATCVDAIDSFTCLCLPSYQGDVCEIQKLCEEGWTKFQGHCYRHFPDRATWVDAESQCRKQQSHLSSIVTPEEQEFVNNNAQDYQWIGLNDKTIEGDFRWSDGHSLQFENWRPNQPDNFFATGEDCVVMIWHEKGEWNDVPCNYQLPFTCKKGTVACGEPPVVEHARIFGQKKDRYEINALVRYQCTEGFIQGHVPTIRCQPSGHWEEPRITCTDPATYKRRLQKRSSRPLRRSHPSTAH

| Protein | aggrecanase activity | other results |
| --- | --- | --- |
| B1 | – | aggrecanase activity (Western blot with MAb BC-3 for the 374ARGXX neoepitope): both isoforms have aggrecanase activity |
| B2 | – | aggrecanase activity (Western blot with MAb BC-3 for the 374ARGXX neoepitope): both isoforms have aggrecanase activity |
| B3 | – | enzymatic (aggrecanase) activity: The furin-processed protein from this construct is enzymatically inactive (SEQ ID NO:46) |
| B4 | The furin-processed mature proteins of construct C and D (SEQ ID NOS:47 and 48, respectively) have aggrecanase activity | – |
| B5 | The furin-processed mature proteins of construct C and D (SEQ ID NOS:47 and 48, respectively) have aggrecanase activity | – |
| B6 | The E362Q mutation abolished the aggrecanase activity of the mature protein (SEQ ID NO:50) of construct G | – |
| B7 | Furin-processed construct H (SEQ ID NO:51) and construct I (SEQ ID NO:52) lack aggrecanase activity | – |
| B8 | Furin-processed construct H (SEQ ID NO:51) and construct I (SEQ ID NO:52) lack aggrecanase activity | – |
